According to the supplement of paper PMC10567573:

B1: TBX5 (parent)
chain: FHEVGTEMIITKAGRRMFPSYKVK
B2: ZER1 (parent)
chain: FDGPEAWGVCEPQREEVEERMWAA

Variants of: B1
Assay: protein stability index of a GFP-peptide fusion (GPS, HEK-293T) (PSI 1-6); higher = more stable
Conditions: c terminus: a fixed tail appended
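Further: lentivirally expressed fusions sorted by FACS into six bins by GFP to DsRed ratio, PSI derived from sequencing read proportions per bin multiplied by bin number.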

Variant	protein stability index
F18K	1.94
F18Y	2.07
F18W	1.8
F18T	1.92
F18N	2.07
F18Q	2.58
F18C	2.61
F18S	2.41
F18H	3.08
F18G	2.25
F18R	1.76
F18V	2.01
F18P	2.11
F18M	2.23
F18L	2.51
F18A	2.76
F18I	2.07
F18E	2.34
K24W	1.65
K24E	1.89
K24N	1.08
K24V	1.65
K24I	1.54
K24G	2.03

Variant	protein stability index
K24M	2.55
K24R	1.51
K24L	1.99
K24D	2.2
K24P	1.55
K24F	2.83
K24Y	2.08
K24C	2.62
K24Q	1.33
K24T	2.41
K24S	1.15
K24H	1.59
K24A	1.99
Y21V	1.86
Y21C	2.21
Y21A	2.66
Y21F	2.83
Y21S	2.61
Y21P	2.13
Y21E	2.92
Y21D	2.64
Y21L	2.15
Y21Q	2.7
Y21M	1.95

Variant	protein stability index
Y21H	3.03
Y21W	1.87
Y21N	2.55
Y21G	2.51
Y21T	2.42
Y21K	2.21
Y21I	1.48
Y21R	3.16
R16N	2.54
R16H	2.02
R16F	2.31
R16C	1.59
R16I	1.81
R16D	2.15
R16T	2.03
R16E	2.38
R16A	1.91
R16P	2.11
R16K	2.65
R16Q	1.85
R16G	2.43
R16S	1.75
R16Y	1.92
R16V	1.54

Variant	protein stability index
R16M	1.96
R16L	2.09
K12P	2.12
K12H	1.8
K12L	2.81
K12R	2.02
K12E	1.83
K12N	2.1
K12F	2.76
K12V	2.68
K12S	2.51
K12T	1.78
K12Q	1.73
K12Y	2.91
K12G	2.1
K12I	1.6
P19C	2.53
P19K	3.38
P19E	2.19
P19N	1.61
P19Q	1.98
P19F	1.79
P19V	1.77
P19T	2.1

Variant	protein stability index
P19W	1.75
P19I	2.23
P19H	1.09
P19Y	3.12
P19R	2.89
P19S	2.72
P19L	1.74
P19G	2
P19D	2.2
P19M	1.4
P19A	2
K22E	1.9
K22F	1.65
K22L	2.14
K22V	1.43
K22S	2.18
K22I	2.03
K22M	2.01
K22W	1.98
K22Q	1.79
K22P	2.08
K22H	1.55
K22N	2.03
K22C	1.86

Variant	protein stability index
K22D	2.34
K22G	2.28
K22Y	2.89
K22T	1.51
K22R	2.45
K22A	1.97
M17K	2.11
M17F	2
M17Q	2.5
M17G	1.67
M17A	2.38
M17R	2.57
M17L	2.27
M17S	2.68
M17P	1.84
M17H	1.71
M17N	1.87
M17I	1.98
M17D	2.28
M17T	1.98
M17C	2.05
M17Y	2.44
M17V	1.63
M17E	2.83

Variant	protein stability index
V23I	1.97
V23C	1.84
V23G	2.9
V23F	2.23
V23L	1.41
V23E	2.5
V23D	2.52
V23R	2.71
V23K	2.24
V23Q	2.09
V23W	2.2
V23A	2.35
V23M	1.78
V23T	2.14
V23S	2.27
V23P	2.8
V23H	2.17
V23Y	1.82
V23N	2.26
G14N	2.04
G14F	2.41
G14W	1.95
G14M	1.49
G14D	1.48

Variant	protein stability index
G14E	2
G14Q	2.17
G14P	2.86
G14R	1.64
G14Y	2.17
G14A	2.6
G14I	1.66
G14H	1.73
G14V	1.62
G14S	1.83
G14T	2.42
G14L	1.71
G14K	1.68
A13D	2.57
A13W	1.93
A13V	2.02
A13R	2.65
A13P	1.93
A13K	2.44
A13G	1.84
A13E	2.68
A13C	2.03
A13S	1.87
A13Y	1.55

Variant	protein stability index
A13L	2.61
A13T	1.68
A13N	2.27
A13M	1.3
A13Q	2.65
A13F	1.97
A13H	2.11
S20Y	2.84
S20W	2.42
S20R	2.61
S20C	3.1
S20L	1.86
S20K	2.18
S20H	2.31
S20G	1.93
S20E	2.02
S20M	2.67
S20I	2.54
S20P	2.42
S20A	1.89
S20T	2.69
S20N	2.06
S20Q	2.83
S20V	1.97

Variant	protein stability index
S20D	2.18
R15K	1.92
R15A	2.18
R15G	1.77
R15V	1.72
R15S	1.69
R15I	1.83
R15L	1.81
R15E	1.74
R15T	2.21
R15D	2.71
R15N	2.29
R15Y	2.58
R15M	1.59
R15Q	2.2
R15W	1.53
R15H	2.14
R15C	2.63
R15P	1.87
R15F	1.91

Variants of: B2
Assay: as above
Conditions: c terminus: a fixed tail appended

Variant	protein stability index
W7G	4.94
W7C	4.66
W7K	4.81
W7D	5.1
W7I	4.89
W7E	4.54
W7H	4.63
W7A	4.29
G3I	1.78
G3V	1.63
G3W	2.12
G3E	1.52
G3C	3.88
G3S	1.96
G3N	2.58
G3P	4.42
G3D	2.56
G3F	2.06
G3H	1.87
G3M	2.1
G3L	1.62
G3T	1.98
P4V	2.48
P4F	1.91
P4H	1.79

Variant	protein stability index
P4T	3.25
P4Y	1.95
P4L	2.47
P4C	2.63
P4K	3.02
P4R	2.81
P4D	3.89
P4M	3.65
P4Q	3.25
P4S	3.29
P4E	4.48
P4G	2.73
P4A	2.48
P4I	3.23
E5P	3.42
E5G	3.26
E5R	3.48
E5S	2.61
E5H	2.59
E5A	2.82
E5C	3.73
E5K	3.13
E5Y	2.76
E5W	2.54
E5F	3.67

Variant	protein stability index
E5V	3.33
E5L	1.64
E5D	2.99
E5Q	3.54
E5I	2.94
E5N	1.95
F1A	5.03
F1Y	3.15
F1S	4.77
F1C	4.17
F1D	4.33
F1I	4.69
F1T	4.94
F1K	3.97
F1M	3.3
F1R	4.45
F1Q	4.88
F1E	4.99
F1G	4.72
F1L	3.93
F1W	4.5
F1P	5.04
F1N	4.87
A6H	2.38
A6C	2.57

Variant	protein stability index
A6D	4.67
A6T	2.48
A6S	3.53
A6L	1.56
A6I	2.43
A6Y	1.82
A6E	4.45
A6W	1.63
A6N	3.6
A6V	2.76
A6K	3.02
A6R	3.35
A6P	3.77
A6G	3.38
A6Q	3.59
D2L	2.62
D2E	2.08
D2W	3.21
D2K	3.26
D2Q	2.69
D2I	5.1
D2R	1.8
D2F	1.68
